Experimental data published in article PMC10811823.

B1: Lgals3bp (galectin 3 binding protein): RAW/shM1 (MGAT3 silenced) (protein)
parent chain: MALLWLLSVFLLVPGTQGTEDGDMRLVNGASANEGRVEIFYRGRWGTVCDNLWNLLDAHVVCRALGYENATQALGRAAFGPGKGPIMLDEVECTGTESSLASCRSLGWMVSRCGHEKDAGVVCSNDTTGLHILDLSGELSDALGQIFDSQQGCDLFIQVTGQGYEDLSLCAHTLILRTNPEAQALWQVVGSSVIMRVDAECMPVVRDFLRYFYSRRIEVSMSSVKCLHKLASAYGATELQDYCGRLFATLLPQDPTFHTPLDLYAYARATGDSMLEDLCVQFLAWNFEPLTQSESWSAVPTTLIQALLPKSELAVSSELDLLKAVDQWSTETIASHEDIERLVEQVRFPMMLPQELFELQFNLSLYQDHQALFQRKTMQALEFHTVPVEVLAKYKGLNLTEDTYKPRLYTSSTWSSLVMASTWRAQRYEYNRYNQLYTYGYGSVARYNSYQSFQTPQHPSFLFKDKQISWSATYLPTMQSCWNYGFSCTSNELPVLGLTTSSYSNPTIGYENRVLILCGGYSVVDVTSFEGSKAPIPTALDTNSSKTPSLFPCASGAFSSFRVVIRPFYLTNSTDMV
B2: Lgals3bp (galectin 3 binding protein): RAW/MGAT3 (MGAT3 overexpressed) (protein)
parent chain: B1 parent chain
B3: Lgals3bp (galectin 3 binding protein): N69A/LG (protein)
parent chain: B1 parent chain

How the values were obtained:
western blot = conditions: glycan changed form; control: control RAW264.7
[1] = Co-IP/western after MG132; conditions: glycan changed form; control: control RAW264.7
[2] = CHX chase, western blot (protein persistence); conditions: glycan changed form; control: control RAW264.7
[3] = Co-IP/western after MG132, HEK 293T; conditions: glycan lost; control: WT/LG

Protein | expression_or_secretion (western blot) | other: ubiquitination [1] | degradation_or_half_life [2] | other: ubiquitination [3]
B1 | increases | decreases | increases | –
B2 | – | – | decreases | –
B3 | – | – | – | decreases
